Reference: patent US6863885B2, “Method of decreasing radiation or radio-mimetic chemotherapy for hematopoietic pluripotent cell engraftment” (The United States of America as represented by the …, priority 1995, dated 2005)

Tested on: engraftment of donor Sca-1+ HPCs (donor Ly5.2 cells among recipient PBMCs)
Test: Cytokine pre-conditioning effect on short term engraftment of donor Sca-1+ HPCs after 200 cGy radiation
Format: in vivo, C57BL/6-Ly-5.1-Pep3b mice
Conditions: mice
Procedure: FIG. 1 is a bar graph showing the cytokine hematopoietic growth factor pretreatment conditioning effect on engraftment of HPCs following 200 cGy radiation in mice, one month after transplantation. Recipient C57BL/6J-Ly-5.1-Pep^3b mice received b.i.d. sc injections of PBS (□) 0.1% BSA, 4 μg rhGCSF (□) in 0.1% BSA, or 4 μg rhGCSF plus 1.0 μg rmSCF(▪) in 0.1% BSA (R&D Systems, Minneapolis, Minn.) for four days. On the fifth day, mice received a single sc injection followed one hour later by a 200 cGy radiation dose. Four hours after irradiation, all mice received 0.5×10^6 Sca-1+BM cells via tail vein injection. Mice were bled 1 month after BMT and PB was analyzed for engraftment. […] The data represent three experiments in series with 2 mice per condition in each experiment. All animals survived this procedure.
The data which forms the basis of the present invention concerns the enhanced in vivo transfer of purified SCA-1+bone marrow derived HPCs using congenic C57BL/6 mice, which differ only at the Ly5 locus. The origin of a cell is detectable by immunoreactivity with either anti-Ly5.1 or anti-Ly5.2 antibodies by FACS of PBMCs. […] Using this system, the effects of pre-transplantation cytokine conditioning on short term engraftment, defined as the percentage of total PBMCs in the recipient that were donor Ly5.2 cells, measured one month after transplantation, have been determined. […]

B1: rhGCSF: recombinant human granulocyte colony stimulating factor (R&D Systems), 4 μg in 0.1% BSA (protein, UniProt P09919 31-207, looked up)
Granulocyte …: TPLGPASSLPQSFLLKCLEQVRKIQGDGAALQEKLVSECATYKLCHPEELVLLGHSLGIPWAPLSSCPSQALQLAGCLSQLHSGLFLYQGLLQALEGISPELGPTLDTLQLDVADFATTIWQQMEELGMAPALQPTQGAMPAFASAFQRRAGGVLVASHLQSFLEVSYRVLRHLAQP
b.i.d. sc for four days plus final injection on day 5, 0.5×10^6 Sca-1+ cells iv, measured one month after transplantation
  engraftment (percentage of total PBMCs in the recipient that were donor Ly5.2 cells): 18.9%
One month after transplantation, versus vehicle control (0.1% BSA), p<0.01
  fold increase in engraftment compared with control: at least a three fold increase
